Reference: patent US20070254831A1 (published 2007)
Where two headings read alike, the source gives them in different places. Each block holds one binder with its values, some of them ahead of it. Bridge positions count the residues as written; N and C are the ends. Square brackets hold non-standard residues; d marks the D form. Ends that are not written are not given here. NMeL = CN[C@@H](CC(C)C)C(=O)O; Pen = CC(C)(S)[C@H](N)C(=O)O; Sar = CNCC(=O)O

Tests used:
soluble human FcRn [1] = molecular target: T1, soluble human FcRn (human, UniProt P55899 24-297; P61769 21-119, biotinylated (Sulfo-NHS-LC-Biotin) in the ELISA; amine-coupled to CM5 chip in SPR); assay: SPR, pH 6
T1 construct: also called shFcRn; biotinylated shFcRn
Procedure: (§1) The following steps were performed to cross-link soluble human or cynomolgus FcRn to the dextran surface of a CM5 sensor chip (Biacore AB, Uppsala, Sweden) by an amine coupling reaction involving 1-ethyl-(3-dimethylaminopropyl)-carbodiimide hydrochloride (EDC) (Biacore AB, Uppsala, Sweden) and N-hydroxysuccinimide (NHS) (Biacore AB, Uppsala, Sweden) as recommended by Biacore (BIAapplications Handbook, version AB, section 4.2, Biacore AB, Uppsala, Sweden). […] Residual sites on the FcRn flow cell were blocked with 1 M ethanolamine hydrochloride pH 8.5 (Biacore AB, Uppsala, Sweden). A control flow cell was blocked with ethanolamine for reference subtraction. For analysis of the monomeric peptides, FcRn was coated to a final density of 4000-5000 response units (RU). For analysis of the peptide dimers, FcRn was coated to a density of 2000-2500 RU. All SPR measurements were performed using a BIACORE 3000 Instrument (Biacore AB Uppsala, Sweden). For measurements done at either pH 6 or pH 7.4, experiments were performed in 50 mM phosphate, 100 mM sodium chloride, 0.01% surfactant P20 (Biacore AB, Uppsala, Sweden).
(§2) Ten, 2-fold dilutions of the peptide were injected over the FcRn-CM5 chip at a rate of 20 μl/min for 2 min. The peptide was dissociated from the chip for 2.5 minutes with buffer. Any remaining peptide was removed from the chip with a 30 second injection of HBS-P buffer (Biacore AB, Uppsala, Sweden) at a rate of 30 μl/min. Sensorgrams were generated and analyzed using BiaEval software version 3.1 (Biacore AB, Uppsala, Sweden). The equilibrium RU observed for each injection was plotted against concentration. The equilibrium KD values were derived by analysis of the plots using the steady state affinity model included in the BiaEval software.

soluble human FcRn [2] = molecular target: T1, soluble human FcRn; assay: SPR, pH 7.4
Procedure: as §1
(§3) Ten, 2-fold dilutions of the peptide were injected over the FcRn-CM5 chip at a rate of 20 μl/min for 2 min. The peptide was dissociated from the chip for 2.5 minutes with buffer. […] Sensorgrams were generated and analyzed using BiaEval software version 3.1 (Biacore AB, Uppsala, Sweden). […]

soluble human FcRn [3] = molecular target: T1, soluble human FcRn; assay: ELISA, competitor human IgG
Procedure: (§4) The wells were coated with 100 μl/well of 1 μg/ml biotinylated-shFcRn in Buffer A. The plate was sealed and incubated at 37° C. for 2 hours. Afterwards, the plate washed with 200 μl/well of Buffer B (Buffer B: 100 mM MES pH 6, 150 mM NaCl, 0.5% BSA IgG-free (Jackson ImmunoResearch, West Grove, Pa.), 0.05% Tween-20). […] To allow for mixing, the plate was rocked for 2 minutes, sealed and incubated at 37° C. for 2 hours. […] The plate was covered, incubated for 30 minutes at room temperature and washed 4 times with 200 μl/well of ice-cold buffer B. SureBlue TMB substrate solution (100 μl/well, KPL, Gaithersburg, Md.) was added and the plate was allowed to incubate at room temperature until color developed, which took 5 to 10 minutes. Once color developed, 100 μl/well of TMB stop solution (KPL, Gaithersburg, Md.) was added and the absorbance was measured at 450 nm. The data was plotted as absorbance vs. peptide concentration to derive the inhibitory concentration 50% (IC₅₀) values.

soluble human FcRn [4] = molecular target: T1, soluble human FcRn; assay: SPR, pH 6; remark: listed apart in the source
Procedure: as §1, §3

soluble human FcRn [5] = molecular target: T1, soluble human FcRn; assay: ELISA, competitor human IgG; remark: listed apart in the source
Procedure: as §4

soluble human FcRn [6] = molecular target: T1, soluble human FcRn; assay: SPR, pH 7.4; remark: listed apart in the source
Procedure: as §1, §3

soluble human FcRn [7] = molecular target: T1, soluble human FcRn; assay: SPR, pH 6; remark: listed apart in the source
Procedure: as §1, §3

soluble human FcRn [8] = molecular target: T1, soluble human FcRn; assay: ELISA, competitor human IgG; remark: listed apart in the source
Procedure: as §4

soluble human FcRn [9] = molecular target: T1, soluble human FcRn; assay: SPR, pH 7.4; remark: listed apart in the source
Procedure: as §1, §3

soluble human FcRn [10] = molecular target: T1, soluble human FcRn; assay: ELISA, competitor human IgG; remark: listed apart in the source
soluble human FcRn [11] = molecular target: T1, soluble human FcRn; assay: ELISA, competitor human IgG; remark: listed apart in the source
Procedure: as §4

soluble human FcRn [12] = molecular target: T1, soluble human FcRn; assay: SPR, pH 7.4; remark: listed apart in the source
Procedure: as §1, §2

soluble human FcRn [13] = molecular target: T1, soluble human FcRn; assay: ELISA, competitor human IgG; remark: listed apart in the source
Procedure: as §4

soluble human FcRn [14] = molecular target: T1, soluble human FcRn; assay: SPR, pH 7.4; remark: listed apart in the source
Procedure: as §1, §3

soluble human FcRn [15] = molecular target: T1, soluble human FcRn; assay: SPR, pH 6; remark: listed apart in the source
Procedure: as §1, §2

soluble human FcRn [16] = molecular target: T1, soluble human FcRn; assay: ELISA, competitor human IgG; remark: listed apart in the source
Procedure: as §4

soluble human FcRn [17] = molecular target: T1, soluble human FcRn; assay: SPR, pH 7.4; remark: listed apart in the source
Procedure: as §1, §3

soluble human FcRn [18] = molecular target: T1, soluble human FcRn; assay: SPR, pH 6; remark: listed apart in the source
Procedure: as §1, §2

soluble human FcRn [19] = molecular target: T1, soluble human FcRn; assay: SPR, pH 7.4; remark: listed apart in the source
Procedure: as §1, §3

soluble human FcRn [20] = molecular target: T1, soluble human FcRn; assay: SPR, pH 6; remark: listed apart in the source
Procedure: as §1, §3

soluble human FcRn [21] = molecular target: T1, soluble human FcRn; assay: ELISA, competitor human IgG; remark: listed apart in the source
Procedure: as §4

soluble human FcRn [22] = molecular target: T1, soluble human FcRn; assay: SPR, pH 6; remark: listed apart in the source
Procedure: as §1, §2

Kd (soluble human FcRn [1]): 2.1 µM
B1: Peptide No. 105 (peptide)
peptide: QRFDTGHFG[dA]LYPKNGP-NH2
modifications: lactam 4-14; N-terminus assumed
SMILES: CC(C)C[C@@H]1NC(=O)[C@@H](C)NC(=O)CNC(=O)[C@H](Cc2ccccc2)NC(=O)[C@H](Cc2c[nH]cn2)NC(=O)CNC(=O)[C@H]([C@@H](C)O)NC(=O)[C@@H](NC(=O)[C@H](Cc2ccccc2)NC(=O)[C@H](CCCNC(=N)N)NC(=O)[C@@H](N)CCC(N)=O)CC(=O)NCCCC[C@@H](C(=O)N[C@@H](CC(N)=O)C(=O)NCC(=O)N2CCC[C@H]2C(N)=O)NC(=O)[C@@H]2CCCN2C(=O)[C@H](Cc2ccc(O)cc2)NC1=O

IC50 (soluble human FcRn [5]): 26 µM
Kd (soluble human FcRn [6]): 24 µM
Binder: QRFXTGHFGGLXPCNGP (Pen at 4; 4-fluoro-Phe at 12; disulfide; C-terminal amide) [Peptide No. 140]

Kd (soluble human FcRn [7]): 0.006 µM
IC50 (soluble human FcRn [8]): 0.97 µM
Kd (soluble human FcRn [9]): 0.12 µM
B2: Peptide No. 122 (peptide)
peptide: QRFDTGHFGGLYPKNGP
modifications: also: bromoacetylated peptide joined to a SATP-derivatized peptide (dimer), further groups not given here

IC50 (soluble human FcRn [10]): 37 µM
IC50 (soluble human FcRn [11]): 37 µM
Kd (soluble human FcRn [12]): 9 µM
B3: Peptide No. 236 (peptide)
peptide: RFVTGHFG[Sar][NMeL]YPA-NH2
modifications: N-terminus assumed
SMILES: CC(C)C[C@@H](C(=O)N[C@@H](Cc1ccc(O)cc1)C(=O)N1CCC[C@H]1C(=O)N[C@@H](C)C(N)=O)N(C)C(=O)CN(C)C(=O)CNC(=O)[C@H](Cc1ccccc1)NC(=O)[C@H](Cc1c[nH]cn1)NC(=O)CNC(=O)[C@@H](NC(=O)[C@@H](NC(=O)[C@H](Cc1ccccc1)NC(=O)[C@@H](N)CCCNC(=N)N)C(C)C)[C@@H](C)O

Kd (soluble human FcRn [14]): 0.96 µM
Kd (soluble human FcRn [15]): 0.15 µM
IC50 (soluble human FcRn [16]): 3 µM
B4: Peptide No. 296 (peptide)
peptide: QRF[Pen]HGHFGGLYPCNGP-NH2
modifications: disulfide 4-14; N-terminus assumed
SMILES: CC(C)C[C@@H]1NC(=O)CNC(=O)CNC(=O)[C@H](Cc2ccccc2)NC(=O)[C@H](Cc2c[nH]cn2)NC(=O)CNC(=O)[C@H](Cc2c[nH]cn2)NC(=O)[C@@H](NC(=O)[C@H](Cc2ccccc2)NC(=O)[C@H](CCCNC(=N)N)NC(=O)[C@@H](N)CCC(N)=O)C(C)(C)SSC[C@@H](C(=O)N[C@@H](CC(N)=O)C(=O)NCC(=O)N2CCC[C@H]2C(N)=O)NC(=O)[C@@H]2CCCN2C(=O)[C@H](Cc2ccc(O)cc2)NC1=O

Kd (soluble human FcRn [20]): 0.14 µM
IC50 (soluble human FcRn [21]): 1.5 µM
Binder: RFXTGHFGPLYPC (Pen at 3; D-Pro at 9; disulfide; C-terminal amide) [Peptide No. 142]

IC50 (soluble human FcRn [10]): 52 µM
Kd (soluble human FcRn [12]): 96 µM
Kd (soluble human FcRn [22]): 5.8 µM
B6: Peptide No. 177 (peptide)
peptide: QRFVTGHFG[dP]WYPANGP-NH2
modifications: N-terminus assumed
SMILES: CC(C)[C@H](NC(=O)[C@H](Cc1ccccc1)NC(=O)[C@H](CCCNC(=N)N)NC(=O)[C@@H](N)CCC(N)=O)C(=O)N[C@H](C(=O)NCC(=O)N[C@@H](Cc1c[nH]cn1)C(=O)N[C@@H](Cc1ccccc1)C(=O)NCC(=O)N1CCC[C@@H]1C(=O)N[C@@H](Cc1c[nH]c2ccccc12)C(=O)N[C@@H](Cc1ccc(O)cc1)C(=O)N1CCC[C@H]1C(=O)N[C@@H](C)C(=O)N[C@@H](CC(N)=O)C(=O)NCC(=O)N1CCC[C@H]1C(N)=O)[C@@H](C)O

The remaining lines, values behind:

Binder: QRFCTGHFG[dA]LYPCNGP-NH2 (disulfide 4-14 (inferred)) [Peptide No. 23]
Kd (soluble human FcRn [2]): 184 µM
IC50 (soluble human FcRn [3]): 57 µM

Binder: QRFCTGHF[dA][dA]LYPCNGP-NH2 (disulfide 4-14 (inferred)) [Peptide No. 24]
Kd (soluble human FcRn [4]): 22 µM
IC50 (soluble human FcRn [3]): 69 µM

Binder: QRFXTGHFGGLYPENGP (Dab at 4; side-chain lactam bridge Dab 4-Glu 14; C-terminal amide) [Peptide No. 72]
IC50 (soluble human FcRn [13]): 81 µM
Kd (soluble human FcRn [1]): 4.8 µM

Binder: QRFXTGHFGGLYPDNGP (Dab at 4; side-chain lactam bridge Dab 4-Asp 14; C-terminal amide) [Peptide No. 81]
Kd (soluble human FcRn [17]): 45 µM
Kd (soluble human FcRn [1]): 8.4 µM

Binder: QRFXTGHFGGHYPCNGP (Pen at 4; disulfide; C-terminal amide) [Peptide No. 84]
Kd (soluble human FcRn [18]): 0.38 µM
Kd (soluble human FcRn [19]): 2.5 µM

B5: Peptide No. 100 (peptide)
peptide: QRFDTGHFGGLYPKNGP
modifications: also: N-termini joined through a bis-thiol linker (bromoacetylated peptide), bridge as drawn, places not given here
Kd (soluble human FcRn [7]): 0.006 µM
IC50 (soluble human FcRn [8]): 0.76 µM
Kd (soluble human FcRn [9]): 0.13 µM

B7: Peptide No. 80 (peptide)
peptide: QRFKTGHFGGLYPDNGP-NH2
modifications: lactam 4-14; N-terminus assumed
SMILES: CC(C)C[C@@H]1NC(=O)CNC(=O)CNC(=O)[C@H](Cc2ccccc2)NC(=O)[C@H](Cc2c[nH]cn2)NC(=O)CNC(=O)[C@H]([C@@H](C)O)NC(=O)[C@@H](NC(=O)[C@H](Cc2ccccc2)NC(=O)[C@H](CCCNC(=N)N)NC(=O)[C@@H](N)CCC(N)=O)CCCCNC(=O)C[C@@H](C(=O)N[C@@H](CC(N)=O)C(=O)NCC(=O)N2CCC[C@H]2C(N)=O)NC(=O)[C@@H]2CCCN2C(=O)[C@H](Cc2ccc(O)cc2)NC1=O
Kd (soluble human FcRn [17]): 52 µM
IC50 (soluble human FcRn [13]): 60 µM
